{"source": "patent US20060134087A1", "about": "“ITI-D1 Kunitz domain mutants as hNE inhibitors” (Dyax Corp., priority 1988, published 2006)", "key": {"[1]": {"biological_target": "T1, agarose-immobilized hNE beads (Homo sapiens, UniProt P08246)", "T1 sequence (P08246 30-267)": "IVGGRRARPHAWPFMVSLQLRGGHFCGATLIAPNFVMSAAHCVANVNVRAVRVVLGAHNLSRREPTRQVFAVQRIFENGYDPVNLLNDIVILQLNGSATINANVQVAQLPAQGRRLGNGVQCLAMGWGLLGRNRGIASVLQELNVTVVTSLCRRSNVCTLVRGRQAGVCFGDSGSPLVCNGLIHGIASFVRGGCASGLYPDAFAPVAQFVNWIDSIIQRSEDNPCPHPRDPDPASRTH", "assay": "pH fractionation of display phage on agarose-immobilized hNE beads", "format": "binding", "details": "range of the affinity class", "text": "For the purpose of simultaneously assessing the affinity of a large number of different BPTI and ITI-D1 muteins, DNA sequences encoding the BPTI or ITI-D1 was incorporated into the genome of the bacteriophage M13. […] Alterations in the KuDom amino acid sequence were introduced. Each pure population of phage displaying a particular KuDom was characterized with regard to its interactions with immobilized hNE or hCG. Based on comparison to the pH elution profiles of phage displaying other KuDoms of known affinities for the particular protease, mutant KuDoms having high affinity for the target proteases were identified. Subsequently, the sequences of these mutant KuDoms were determined (typically by sequencing the corresponding DNA sequence).\nTo test if phage displaying the ITI-D1::III fusion protein interact strongly with the proteases human neutrophil elastase (hNE), aliquots of display phage were incubated with agarose-immobilized hNE beads (“hNE beads”). The beads were washed and bound phage eluted by pH fractionation as described in U.S. Pat. No. 5,223,409. The pHs used in the step gradient were 7.0, 6.0, 5.5, 5.0, 4.5, 4.0, 3.5, 3.0, 2.5, and 2.0. Following elution and neutralization, the various input, wash, and pH elution fractions were titered. Phage displaying ITI-D1 were compared to phage that display EpiNE-7.\nTo test if ITI-D1E7-display phage bind hNE beads, pH elution profiles were measured. Aliquots of EpiNE-7, MA-ITI-D1, and MA-ITI-D1E7 display phage were incubated with hNE beads for three hours at room temperature (RT). The beads were washed and phage were eluted as described in U.S. Pat. No. 5,223,409, except that only three pH elutions were performed. […] The pH elution profile of EpiNE-7 display phage is as described. MA-ITI-D1E7 phage show a broad elution maximum around pH 5. The total fraction of MA-ITI-D1E7 phage obtained on pH elution from hNE beads was about 40-fold less than that obtained using EpiNE-7 display phage.\nWe characterized the binding properties to hNE-beads of MA-BITI and MA-BITI-E7 display phage using the extended pH fractionation procedure described in U.S. Pat. No. 5,223,409.\nThe binding capacity of hNE-beads for display phage varies among preparations of beads and with age for each individual preparation of beads. Thus, it is difficult to directly compare absolute yields of phage from elutions performed at different times. For example, the fraction of MA-EpiNE7 display phage recovered from hNE-beads varies two-fold among the experiments shown in Tables 14, 16, and 17. However, the shapes of the pH elution profiles are similar. It is possible to correct somewhat for variations in binding capacity of hNE-beads by normalizing display phage yields to the total yield of MA-EpiNE7 phage recovered from the beads in a concurrent elution. When the data shown in Tables 14, 16, and 17 are so normalized, the recoveries of display phage, relative to recovered MA-EpiNE7, are shown in Table 3.\nITI-D1 derivative BITI-E7-1222 is BITI-E7 with the alteration A11T. ITI-D1 derivative BITI-E7-141 is BITI-E7 with the alterations E31Q and Q34V; phage that display the presence of these proteins are MA-BITI-E7-1222 and MA-BITI-E7-141. We determined the binding properties to hNE-beads of MA-BITI-E7-1222 and MA-BITI-E7-141 display phage using the extended pH fractionation protocol described previously. The results are in Tables 18 (for MA-BITI-E7 and MA-BITI-E7-1222) and 19 (for MA-EpiNE7 and MA-BITI-E7-141). The pH elution profiles for the MA-BITI-E7 and MA-BITI-E7-1222 phage are almost identical.\nTotal pfu applied to the beads are in column two. The fractions of this input pfu recovered in each pH fraction of the abbreviated pH elution protocol (pH 7.0, pH 3.5, and pH 2.0) are in the next three columns. […]"}, "[2]": {"biological_target": "T2, human neutrophil elastase (hNE) (Homo sapiens, UniProt P08246)", "T2 sequence (P08246 30-267)": "T1 sequence (P08246 30-267)", "details": "ALBR83a,b, ODOM90, cited from earlier work"}, "trypsin": {"tested_on": "trypsin", "details": "literature; cited from earlier work"}, "chymotrypsin": {"tested_on": "chymotrypsin", "details": "literature; cited from earlier work"}, "plasmin": {"biological_target": "plasmin (Homo sapiens, UniProt P00747)", "sequence (P00747 581-810 limits assumed, species assumed)": "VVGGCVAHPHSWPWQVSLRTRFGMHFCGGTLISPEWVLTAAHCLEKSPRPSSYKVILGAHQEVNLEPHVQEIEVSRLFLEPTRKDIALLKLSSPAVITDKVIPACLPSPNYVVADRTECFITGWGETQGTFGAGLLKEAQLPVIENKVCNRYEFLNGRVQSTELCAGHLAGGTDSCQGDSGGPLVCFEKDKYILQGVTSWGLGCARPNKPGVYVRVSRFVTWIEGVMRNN", "sequence (P00747 97-580 partner limits assumed, species assumed)": "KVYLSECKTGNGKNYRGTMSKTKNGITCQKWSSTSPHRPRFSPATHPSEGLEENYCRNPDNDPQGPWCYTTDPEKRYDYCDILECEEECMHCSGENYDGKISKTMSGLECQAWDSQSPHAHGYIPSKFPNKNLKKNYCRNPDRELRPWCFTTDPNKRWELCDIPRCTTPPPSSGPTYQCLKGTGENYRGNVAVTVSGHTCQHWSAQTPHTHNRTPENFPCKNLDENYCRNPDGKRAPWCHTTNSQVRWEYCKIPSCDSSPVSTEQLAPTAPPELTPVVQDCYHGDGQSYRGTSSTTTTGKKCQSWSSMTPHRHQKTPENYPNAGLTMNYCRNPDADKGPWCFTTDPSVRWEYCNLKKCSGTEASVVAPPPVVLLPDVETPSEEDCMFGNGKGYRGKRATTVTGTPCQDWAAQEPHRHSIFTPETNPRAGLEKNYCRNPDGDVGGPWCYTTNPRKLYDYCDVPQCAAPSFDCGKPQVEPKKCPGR", "details": "literature; cited from earlier work"}}, "note": "Like-named read-outs stand apart in the source and are kept apart here. Ends that are not written are not given here."}
{"substance": "ITI-D1: first Kunitz domain of human inter-α-trypsin inhibitor light chain, SEQ ID NO 016 (KEDSCQLGYSAGPCMGMTSRYFYNGTSMACETFQYGGCMGNGNNFVTEKDCLQTCRTV; disulfide (positions not given here); also: disulfides drawn as lines in table, pairing not given here)", "values": [{"measurement": "Fraction of Input bound", "setting": "[1]", "value": "<0.005", "unit": "%"}, {"measurement": "pH Elution Maximum", "setting": "[1]", "value": ">6.0", "unit": "pH"}, {"measurement": "Ki", "setting": "[2]; read-out: Ki for leukocyte elastase, lower limit", "value": "> 1", "unit": "nM"}, {"measurement": "Ki", "setting": "[2]; read-out: Ki for leukocyte elastase, upper limit", "value": "< 1000", "unit": "nM"}, {"measurement": "affinity for / inhibition of trypsin", "setting": "trypsin", "value": "lacks affinity"}, {"measurement": "affinity for chymotrypsin", "setting": "chymotrypsin", "value": "lacks affinity"}, {"measurement": "affinity for plasmin", "setting": "plasmin", "value": "lacks affinity"}]}
